Assay: yeast display, Sf9 membrane polyspecificity reagent, FACS + sequencing; frameworks hold sequencing errors
Procedure, shortened: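 In a synthetic yeast display library (Saccharomyces cerevisiae BJ5465), nanobody expression was induced with galactose for 36–48 hours. FACS gates were set low and high (top ~1%) using anti-HA fluorescence for expression and streptavidin fluorescence for binding of the Sf9 membrane reagent. Each polyreactivity label is drawn from the gate of origin.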

Sequence | polyreactivity (PSR sort gate)
QVQLVESGGGLVQAGGSLRLSCAASGSIFRSYAMGWYRQAPGKERELVASISRRGGSTYYADSVKGRFTISRDNAKNTVYLQMNSLKLEDTAVYYCAAVRYNSRVSTTPSEMYYWGQGTQVTVSS | low polyreactivity
QVQLVESGGGLVQAGGSLRLSCAASGITFSYYAMGWYRQAPGKERELVAAINSSGGSTYYADSVKGRFTISRDNAKNTVYLQMNSLKPEDTAVYYCNADYGYHNHLFWGYYGWSSDHWGQGTQVTVSS | low polyreactivity
QVQLVESGGGLVQAGGSLRLSCAASGSTLWYNAMGWYRQGPGKERELVASITSDGGSSTYADSVKGRFTISRDNAKYTVYLQMNSLKPEDTAVYYCAADWPIVQYDYWGQGTQVTVSS | low polyreactivity
QVQLVESGGGLVQAGGSLRLSSAASGSIFSSYAMGWYRQAPGKERELVAAISTGGSTYYADSVKGRFTISRDNAKNTVYLQMNSLKPEDTAVYYCAAGIMDLKLYFSSYDYWGQGTQVTVSS | low polyreactivity
QVQLVESGVGLVQAGGTLRLSCAATGSIFWDYAMGWYRHAPGKERQLVASITSGGSTYYADSVKGRFTISRDNAMNTVYLQMNSLKPEETAVYYCAADGHTRHWGQTGRGAMYYWGQGTQVTVSS | low polyreactivity
QVQLEDSGGGLVQAGGSLRLSCAASGSTFPLNAMGWYRQAPGKERELVASINFGGGTTYYADSVKGRFTISRDNAMNTVYLQMNSLKPEDTAVYYCAADVYQEFGYWGQGTQVTVSS | high polyreactivity
QVQLVESGGGLVQAGGSLRLSCAASGSTLGYYAMGWYRQAPGKERELVAAISWRTDSTYYADSVKGRFTISRDNAKNTVYLQMNSLKPEDTAVYYCAAQGAYDTYYAQTYGYWGQGTQVTVSS | low polyreactivity
QVQLVESGGGLVQAGGSLRLSCAASGRIFKTYTMGWYRQAPGKERELVAVSTSVGSTYYADSVKGRFTISRDNAKNTVYLQMNSLKPEDTAVYYCAAETWVPQGYDYWGQGTQVTVSS | high polyreactivity
QVQLVESGGGLVQAGGSLRLSCAASGRTFRTYAMGWYRQAPGKERELVAAITTSGSSTYYADSVKGRFTISRDNAKNTVYLQMNSLKPEDTAVYYCAAARAAIVPGYYSWGQGTQVTVSS | low polyreactivity
QVQLVESGGGLVQAGGSLRLSCAASGSTFYQNAMGWYRQAPGKEMELVAAISSSGRTYYADSVKGRFTISRDNAKNTVFLQMNSLKPEDTAVYYCAFGAYGSLYSIRVAYGRMDYWGQGTQVTVSS | high polyreactivity
QVQLVESGGGLVQAGGSLRLSWAASGFIFGFYAMGWYRQAPGKERELVADITSSGGSTYYADSVKGRFTISRDNAKNTVYLQMNSLKQEDTAVYYCAADGWLHNFYPGTGLDYWGQGTQVTVSS | low polyreactivity
QVQLVESGGGLVQAGGSLRLSCAASGRIFQGYAMGWYRKAPGKERELVAAIRSGSGSTYYADSVKGRFTISRDNAKNTVYLQMNSLKPEDTAVYYCAADRYYWGQGTQVTVSS | low polyreactivity
QVQLVESGGGLVQAGGSLRLSCAASGFIFQWYAMGWYRQAPGKERELVAAISIGDSTYYADSVKGRFTISRDNAKNTVYLQMNSLKPEDTAVYYCNSDPWGYYCVIPLYEYDYWGQGTQVTVSS | low polyreactivity
QVQLVESGGGLVQAGGSLRLSCAASGSIFYSNAMGWYRQAPGKEREFVAAISAGGGSTYYADSVKGRFTISRDNAKNTVYLQMNSLKPEDTAVYYCAAQPYKIIYPYDYWGQGTQVTVSS | low polyreactivity
QVQLVESGGALVQAGGSLRLSCAASGSTFYYYAMGWYRQAPGKEREFVAAISGGDGTTSYADSVKGRFTISRDNAKKTVYLQMNSLKPEDTAFYYCASPYTSYLYGYDYWGQGTQVTVSS | low polyreactivity
QVQLVESGGGLVQAGGSLRLSCAASGRIFSIYAMGWYRQAPGKERELVADITWTGGGTYYADSVKGRFTISRDNAKNTVYLQMNSLKPEDTAVYYCAADLYRKWWYDYWGQGTQVTVSS | high polyreactivity

Sequence | polyreactivity (PSR sort gate)
QVQLVESGGGLVQAGGSLRLSCAASGIYPYYAMGWYRQAPGKERELVATISSADGPKYADSVKGRFTISRDNAKNTVYLQMNSLKPEDTAVYYCNAYVWSWHDYWGQGTQVTVSS | low polyreactivity
QDQLVESGGGLVQAGGSLRLSCAASGIIFDDNTMGWYRQAPGKERELVAAISSSGGSTYYADSVKGRFTISRDNAKNTVYLQMNSLKPEDTAVYYCAAAVYYTYPYIVYRNYPEFDYRGQGTQVTVSS | low polyreactivity
QVQLVESGGGLVQAGGSLRLSCAASGRTFSYYTMGWDRQAPGKERELVASITSDSSTNYADSVKGRFTISRDNAKNTVYLQMNSLKPEHTAVYYCAADHWIAPRRDYWGQGTQVTVSS | low polyreactivity
QVQIVESGGGLDQAGGSLRLSCAATGSTFYWNAMGWYRQAPWKERELVAAISSGGSTYYADSVKGRFTISRDNAKNTVYVQMNSLKPEDTAVYYCAAEWYPYPWGYGYWGQGTQVTVSS | low polyreactivity
QVQLVESGGGLVQAGGSLRLSCAASGFISDVYAMGWYRQAPGKERELVAVITWRGSTYYADSVKGRFTISRDNAKNTVYLQMNSLKPEDTAVYYCAAESQGDWAFDYWGQGTQVTVSS | low polyreactivity
QVQLVESGGGLVQAGGSLRLSSPASGRTIRSYAMGSYRQAPGKERELVAAINSSGGSTYYADSVKARFTISRDNAKNTVYLQMNSLKPEDTAVYYCNTDYSSTSPWRAANYWGQGTQVTVSS | high polyreactivity
QFQLVESGGGLVQAGGSLRLSCAASGFTFDNYVMGWYRQAPGKERELVAAISKSGTSTYYADSVKGRFTISRDNAKNTVYLQMNSLKPEDTAVYYCAAALPGYGDYYYWGQGTQVTVSS | high polyreactivity
QVQLQESGGGLVQAGGSPRLSCAASDNIFPDSVMCWYRQAPGKERELVATIGFGATTNYADSVKGRFTISRDNAKNTVYLQMNSLKPEDTAVYYCAAVPLNYEYFCYWGQGTQVTVSS | low polyreactivity
QVQLVESGGGLDQAGGSLSLSTAASGFTFYVKAMGLYRQAPGKEREWVAAISSSGTRTYYADSVKGRFTISRDNAKNSVYFQMKCLKPEYTAVYFCAARGQAYSGDRMYYWGQGTQVTVSS | high polyreactivity
QVQLVESGGGLVQAGGSLRLSCAASGSTFKLYAMGWYRPAPGKERELVAAITSNCGRTYYADSVKGRFTISRDIAKNTVYLQMNSLKPEDTAVYYCAARRYAPAGGYDYWGQGTQVTVSS | high polyreactivity
QVQLVESGGGLVQAGGSLRLICAASGNTIIRYAIGWFRQAPGKERELVAAISYSGGRTYYADSVKGRFTISRDNAKNTVYLQMNSVKPEDTAVYYCNAASRYGGDYWGQGTQVTVSS | low polyreactivity
QVQLVESGGGLVQAGGSLRLSCAASGFTLDWYVMGWYRQAPGKERELVAAISSSGGRTYYADSVKGRFTISRDNAKNTVSLQLNSLKPEDTAVYYCAARNKYGGYPYGYDYWGQGTQVTVSS | high polyreactivity
QVQLVESGGGLVQAGGSLRLSCAASGITFERYAIGWYRQAPGKERELVAAITSSGGSTYYADSVKGRFTISRDNAKNTVYLQMNSLKPEDTAVYYCAARNAYTPRHDYWGQGTQVTVSS | high polyreactivity
QVQLVESGGGLVQAGGSLRLSCAASGRIFYPYVMGWYRQAPGKERELVAAISDSTGSTYYADSVKGRFTISRDNAKNTVYLQMNSLKPEDTAVYYCAAGWFYATYWRFYYWGQGTQVTVSS | low polyreactivity
QVQLVESGGGLVQAGGSLRLSCAASGSISYYNAMGWYRQAPGKERELVATITDSGGSTYYADSVKGRFTISRDNAKNTVYLQMNSLKPEDTAVYYCAVDYTEWYSIYDYWGQGTEVTVSS | low polyreactivity
QVQLVESGGGLVQAGGSLRLSCAASGSTFSRYAMGWYRQAPGKERELVAAITRSGGSTYYADSVKGRFTISRDNAKNTVYLQMNSLKPEDTAVYYCAASRGRGGYGFDYWGQGTQVTVSS | high polyreactivity

— the nanobody polyreactivity screen of Harvey et al. (2022)
